Test results published in US20220226473A1, “Nucleic acid nanocarrier drug and preparation method thereof, pharmaceutical composition and application thereof” (BAI YAO ZHI DA (BEIJING) NANOBIO TECHNOLOGY CO., LTD., priority 2018, published 2022).
“And” between values parts separate entries of the source, which are not always exact repeats. Identical values can stand only once. Oligonucleotides are written 5' to 3', each unit as a sugar letter and its base; * is a phosphorothioate linkage, no mark a phosphodiester; rarer units and linkages stand in square brackets, end groups in braces. Plain capitals give the bases only. {Biotin} = biotin attached at the strand's 3'-end (Bio); d = 2'-deoxy (DNA)

Assays:
Assay type in all cases: physicochemical
[1] = Electric potential (zeta potential) measurement of self-assembly products; conditions: result over 3 detections
Protocol: Measurement method: preparing a potential sample (the self-assembly product is dissolved in ultrapure water) and putting into a sample pool, opening a sample pool cover of an instrument, and placing the instrument;
opening software, clicking a menu MeasUre€ManUal, so a manual measurement parameter setting dialog box appears;
setting a software detection parameter;
and then clicking Ok to complete the settings, after a measurement dialog box appears, clicking start to start.
and then clicking Ok to complete the settings, after a measurement dialog box appears, clicking Start to start.
Measurement method: preparing a potential sample (the self-assembly product is dissolved in ultrapure water) and putting into a sample pool, opening a sample pool cover of an instrument, and placing the instrument:
Measurement result potential detection results of the 7 groups of the extension fragment deformation+core short-sequence RNA nanoparticles at 25 DEG C. are as follows:
setting a software detection parameter; and then
clicking Ok to complete the settings, after a measurement dialog box appears, clicking Start to start.
Measurement result potential detection results of the 7 groups of the extension fragment deformation+core short-sequence DNA nanoparticles at 25 DEG C. are as follows: […]

[2] = Particle size measurement (DLS hydrodynamic size); conditions: for Mean particle size (nm): DLS hydrodynamic size
Description: 1. Preparing a potential sample (conventional-sequence DNA self-assembly product D-7) and putting into a sample pool, opening a sample pool cover of an instrument, and placing the instrument;
2. opening software, and clicking a menu, so a manual measurement parameter setting dialog box appears;
3. setting a software detection parameter; and then
4. clicking Ok to complete the settings, when a measurement dialog box appears, clicking Start to start, a DLS measurement value result of a hydrodynamic size of the self-assembly product D-7 is shown below in Table 40: […]

[3] = Drug loading rate of nucleic acid nanoparticles (chemical loading, absorbance standard curve); parameters: unit not given here; conditions: chemical loading method of Embodiment 5
Description: According to the chemical loading method (unless otherwise specified, the method is the same as that of Embodiment 5) of Embodiment 5, the RNA nanoparticles formed by the self-assembly of the previous R-15, R-16, R-17, R-18, R-19, R-20 and R-21 in Embodiment 9, and the DNA nanoparticles formed by the self-assembly of the D-8, D-9, D-10, D-11, D-12, D-13 and D-14 in Embodiment 10 are respectively used as doxorubicin loading carriers, doxorubicin loading rates measured are respectively as follows:
According to the chemical loading method (unless otherwise specified, the method is the same as that of Embodiment 5) of Embodiment 5, the DNA nanoparticles formed by the self-assembly of the previous D-10 and D-14 in Embodiment 10 are used as a daunorubicin loading carrier.
According to a chemical loading method of Embodiment 5 (unless otherwise specified, the method is the same as that of Embodiment 5, the same molar number of the epirubicin is used as a loading amount), nucleic acid nanoparticles (a molecular weight is 29550, it is similar to the RNA nanoparticles in Embodiment 1, and a difference is that a fluorescent label on a c-strand is Cy5) are used as a carrier, and respectively loaded with: epirubicin, methotrexate, pirarubicin, daunorubicin, […], 10-hydroxycamptothecin, aspirin and gemcitabine.
Herein, when a standard curve is drawn, the absorbance of the above drugs on the microplate reader is measured respectively. The absorbance of the epirubicin, methotrexate, pirarubicin, daunorubicin, […], 10-hydroxycamptothecin, aspirin and gemcitabine is respectively detected at the following wavelengths: 492 nm, 303 nm, 492 nm, 492 nm, 265 nm, 384 nm, 225 nm and 268 nm. The standard curves obtained correspondingly are respectively shown in FIG. 48a, FIG. 49, FIG. 50sa, FIG. 51, FIG. 52, FIG. 53, FIG. 54a and FIG. 55. […]

[4] = TM value detection by solubility curve method (SYBR Green I); conditions: RNA nanoparticles; temperature corresponding to ½ RFUmax in 20 to 90 DEG C.
Protocol: A solubility curve method is used to detect TM values of the 7 groups of the extension fragment deformation+core short-sequence RNA nanoparticles, and the samples are consistent with the potential samples.
(1) After the sample is diluted with ultrapure water, 5 μg of the diluted sample is mixed with 2 μL of SYBR Green I dye (diluted by 1:200), a final volume is 20 μL, and the dilution concentration is as follows:
(2) It is incubated for 30 min in the dark at a room temperature; and
(3) On-machine detection is performed, a program is set to start at 20 DEG C., the temperature rises per second from 0.1 DEG C. to 95 DEG C., and reading is performed every 5 s.
Due to the particularity of the RNA samples, a temperature corresponding to ½ RFUmax in a range of 20 to 90 DEG C. is used as a sample Tm value in this test.
A solubility curve method is used to detect TM values of the 7 groups of the extension fragment deformation+core short-sequence DNA nanoparticles, and the samples are consistent with the potential samples.
(1) After the sample is diluted with ultrapure water, 5 μg of the diluted sample is mixed with 2 μL of SYBR Green I dye (diluted by 1:200). a final volume is 20 μL, and the dilution concentration is as follows: […]

| Molecule | Potential ZP, Experiment result ([1]; sample in ultrapure water) | other results |
| --- | --- | --- |
| D-7: conventional-sequence DNA nanoparticle without target head, strands SEQ ID NO: 117-119 (nucleic acid, three-strand DNA nanoparticle) chain 1: dC*dG*dC*dGdCdGdCdCdCdAdCdGdAdGdCdGdTdTdGdCdGdGdGdCdGdC*dC*dG*dC chain 2: dG*dC*dG*dGdCdGdCdCdCdGdCdTdTdCdGdGdCdGdGdCdAdGdGdC*dG*dG*dC chain 3: dG*dC*dC*dGdCdCdAdGdCdCdGdCdCdCdAdTdAdGdCdCdGdTdGdGdGdCdGdC*dG*dC*dG | −32.20 mV (±0.0.5 mV) | Particle size Z-Ave, Experiment result ([2]; result over 3 detections, DLS): 12.33 d.nm (±1.57 d.nm); Particle size Z-Ave ([2]; single detection (detection times 1-3), DLS): 10.76 nm·days and 13.9 nm·days and 10.36 nm·days |
| D-2: conventional-sequence DNA nanoparticle with EGFRapt target head, strands SEQ ID NO: 102-104 (nucleic acid, three-strand DNA nanoparticle with an EGFR aptamer part) chain 1: dC*dG*dC*dGdCdGdCdCdCdAdGdCdAdGdCdGdTdTdCdGdCdGdGdGdCdGdGdCdGdGdCdCdTdTdAdGdTdAdAdCdGdTdGdCdTdTdTdGdAdTdGdTdCdGdAdTdTdCdGdAdCdAdGdGdA*dG*dG*dC chain 2: dC*dG*dC*dCdGdCdCdCdGdCdGdTdTdCdGdCdCdGdCdCdAdGdCdC*dG*dC*dC chain 3: dG*dG*dC*dGdGdCdAdGdGdCdGdGdCdCdAdTdAdGdCdGdCdTdGdGdGdCdGdC*dG*dC*dG | −36.47 mV (±0.67 mV) | – |
| D-6: conventional-sequence DNA nanoparticle without target head, strands SEQ ID NO: 114-116 (nucleic acid, three-strand DNA nanoparticle) chain 1: dC*dG*dC*dGdCdGdCdCdCdAdGdCdAdGdCdGdTdTdCdGdGdGdGdCdGdC*dC*dG*dC chain 2: dG*dC*dG*dGdCdGdCdCdCdCdGdTdTdCdGdGdCdCdGdGdCdAdGdGdC*dG*dG*dC chain 3: dG*dC*dC*dGdCdCdAdGdCdCdGdGdCdCdCdAdTdAdGdCdGdCdTdGdGdGdCdGdC*dG*dC*dG | −31.90 mV (±0.2 mV) | – |
| R-14: conventional-sequence RNA nanoparticle carrying survivin siRNA, strands SEQ ID NO: 94-96, C/U 2′F modified (nucleic acid, chain 1: DNA at T, 2'-fluoro at CU, RNA at AG, backbone not given here; chain 2: 2'-fluoro at CU, RNA at AG, backbone not given here; chain 3: 2'-fluoro at CU, RNA at AG, backbone not given here; three-strand RNA nanoparticle carrying a survivin siRNA fragment) chain 1: CGCGCGCGAGCGUUGCAAUGACAGAUAAGGAACCUGCUTT chain 2: GGCAGGUUCCUUAUCUGUCAAAGCUUCGGCGGCAGC chain 3: GCAGCCGCCCAUAGCCGCGCGCG | −23.53 mV. ± 2.33 mV | – |
| R-13: conventional-sequence RNA nanoparticle, strands SEQ ID NO: 91-93, C/U 2′F modified (nucleic acid, 2'-fluoro at CU, RNA at AG, backbone not given here; Strands self-assemble into an RNA nanoparticle carrier) chain 1: CGCGCGCCCAGCAGCGUUCGGGGCGCCGC chain 2: GCGGCGCCCCGUUCGGCCGGCAGGCGGC chain 3: GCCGCCAGCCGGCCCAUAGCGCUGGGCGCGCG | −15.45 mV (±5.81 mV) | – |
| R-15: extension fragment deformation+core short-sequence RNA nanoparticle, SEQ ID NO: 120-122, a-strand 3′ biotin, 2′F (nucleic acid, chain 1: 2'-fluoro at CU, RNA at AG, 3' {Biotin}, backbone not given here; chain 2: 2'-fluoro at CU, RNA at AG, backbone not given here; chain 3: 2'-fluoro at CU, RNA at AG, backbone not given here; three-strand RNA nanoparticle) chain 1: GCGGCGAGCGGCGAGGAGCGUUGGGGCCGGAGGCCGG chain 2: CCGGCCUCCGGCCCCUUCGGGGCCAGCCGCC chain 3: GGCGGCAGGCCCCCAUAGCCCUCGCCGCUCGCCGC | – | Potential ZP, Experiment result ([1]; at 25 DEG C.): −23.23 mV; doxorubicin loading rate [3]: 20.5; Mean particle size (nm) [2]: 6.808 nm; TM value (° C.) [4]: 57.5 °C |
| R-16: extension fragment deformation+core short-sequence RNA nanoparticle, SEQ ID NO: 123-125, 3′ biotin, 2′F (nucleic acid, chain 1: 2'-fluoro at CU, RNA at AG, 3' {Biotin}, backbone not given here; chain 2: 2'-fluoro at CU, RNA at AG, backbone not given here; chain 3: 2'-fluoro at CU, RNA at AG, backbone not given here; three-strand RNA nanoparticle) chain 1: GCGGCGAGCGGCGAGCAGCGUUCGGGCCGGAGGCCGG chain 2: CCGGCCUCCGGCCCGUUCGCCGCCAGCCGCC chain 3: GGCGGCAGGCGGCCAUAGCGCUCGCCGCUCGCCGC | – | Potential ZP, Experiment result ([1]; at 25 DEG C.): −20.93 mV; doxorubicin loading rate [3]: 29.4; Mean particle size (nm) [2]: 6.978 nm; TM value (° C.) [4]: 53.8 °C |
| R-12: conventional-sequence RNA nanoparticle, strands SEQ ID NO: 88-90, C/U 2′F modified (nucleic acid, 2'-fluoro at CU, RNA at AG, backbone not given here; three-strand RNA nanoparticle used as drug carrier) chain 1: CGCGCGCCCAGCAGCGUUCGCCCCGCCGC chain 2: GCGGCGGGGCGUUCGGCGGCAGGCGGC chain 3: GCCGCCAGCCGCCCAUAGCGCUGGGCGCGCG | −10.86 mV (±3.27 mV) | – |
| R-8: conventional-sequence RNA nanoparticle with extension fragments, strands SEQ ID NO: 76-78, C/U 2′F modified (nucleic acid, 2'-fluoro at CU, RNA at AG, backbone not given here; three-strand RNA nanoparticle used as drug carrier) chain 1: CGCGCGCCCAGGAGCGUUGGCGGGCGGCG chain 2: CGCCGCCCGCCUUCGCCGCCAGCCGCC chain 3: GGCGGCAGGCGGCCAUAGCCCUGGGCGCGCG | −17.43 mV (±1.33 mV) | – |
| R-9: conventional-sequence RNA nanoparticle, strands SEQ ID NO: 79-81, C/U 2′F modified (nucleic acid, 2'-fluoro at CU, RNA at AG, backbone not given here; three-strand RNA nanoparticle used as drug carrier) chain 1: CGCGCGCCCAGCAGCGUUCGCGGGCGGCG chain 2: CGCCGCCCGCGUUCGCCGCCAGCCGCC chain 3: GGCGGCAGGCGGCCAUAGCGCUGGGCGCGCG | −18.20 mV (±1.3 mV) | – |
| R-11: conventional-sequence RNA nanoparticle, strands SEQ ID NO: 85-87, C/U 2′F modified (nucleic acid, 2'-fluoro at CU, RNA at AG, backbone not given here; three-strand RNA nanoparticle used as drug carrier) chain 1: CGCGCGCCCAGGAGCGUUGGCCCGCGGCG chain 2: CGCCGCGGGCCUUCGGGGCCAGCCGCC chain 3: GGCGGCAGGCCCCCAUAGCCCUGGGCGCGCG | −29.13 mV (±3.13 mV) | – |
| R-10: conventional-sequence RNA nanoparticle, strands SEQ ID NO: 82-84, C/U 2′F modified (nucleic acid, 2'-fluoro at CU, RNA at AG, backbone not given here; three-strand RNA nanoparticle used as drug carrier) chain 1: CGCGCGCCCACGAGCGUUGCGGGGCGGCG chain 2: CGCCGCCCCGCUUCGCCGCCAGCCGCC chain 3: GGCGGCAGGCGGCCAUAGCCGUGGGCGCGCG | −10.87 mV (±0.47 mV) | – |
